In PMC2174365 (The Journal of Cell Biology, 2000):
Changes are numbered by the printed parent chain. One block for each binder: values may come before it.

Columns and labels:
[1] = molecular target: the molecule itself; assay: cross-linking
[2] = molecular target: microtubules (taxol-stabilized; polymer of alpha- and beta-tubulin); assay: cell-based or functional assay

Km(MT) of the microtubule-stimulated ATPase, with 200 μM DTNB [2]: 1.24 μM tubulin
Km(MT) of the microtubule-stimulated ATPase, without DTNB [2]: 0.84 μM tubulin
B1: Cys344 Cys-light K560-GFP (neck coiled-coil mutant Tyr344Cys) (domain or fragment, human, UniProt P33176 1-560, looked up)
chain: MADLAESNIKVMCRFRPLNESEVNRGDKYIAKFQGEDTVVIASKPYAFDRVFQSSTSQEQVYNDAAKKIVKDVLEGYNGTIFAYGQTSSGKTHTMEGKLHDPEGMGIIPRIVQDIFNYIYSMDENLEFHIKVSYFEIYLDKIRDLLDVSKTNLSVHEDKNRVPYVKGATERFVSSPDEVMDTIDEGKSNRHVAVTNMNEHSSRSHSIFLINVKQENTQTEQKLSGKLYLVDLAGSEKVSKTGAEGAVLDEAKNINKSLSALGNVISALAEGSTYVPYRDSKMTRILQDSLGGNARTTIVICCSPSSYNESETKSTLLFGQRAKTIKNTVSVNVELTAEQWKKKCEKEKEKNKILRNTIQWLENELNRWRNGETVPIDEQFDKEKANLEAFTVDKDITLTNDKPATAIGVIGNFTDAERRKAEEEIAKLYKQLDDKDEEINQQSQLVEKLKTQMLDQEELLASTRRDQDNMQAELNRLQAENDASKEEVKEVLQALEELAVNYDQKSQEVEDKTKEYELLSDELNQKSATLASIDAELQKLKEMTNHQKKRAAEMMASLLK
stoichiometry N [1]: 2

Km(MT) of the microtubule-stimulated ATPase, with 200 μM DTNB [2]: 1.59 μM tubulin
Km(MT) of the microtubule-stimulated ATPase, without DTNB [2]: 1.2 μM tubulin
B2: Cys337 Cys-light K560-GFP (neck coiled-coil mutant Ala337Cys) (domain or fragment, human, UniProt P33176 1-560, looked up)
chain: B1 chain with A337C, C344Y
stoichiometry N [1]: 2

Km(MT) of the microtubule-stimulated ATPase, with 200 μM DTNB [2]: 1.51 μM tubulin
Km(MT) of the microtubule-stimulated ATPase, without DTNB [2]: 1.19 μM tubulin
B3: Cys337/Cys344 Cys-light K560-GFP (neck coiled-coil double mutant Ala337Cys/Tyr344Cys) (domain or fragment, human, UniProt P33176 1-560, looked up)
chain: B1 chain with A337C
